Measured values reported in paper PMC8528861 (2021).
Where no end group is shown, it is not given here. [ ]: non-standard residue; d: D form. pY = N[C@@H](Cc1ccc(OP(=O)(O)O)cc1)C(=O)O

Key:
Experiment in all cases: SPR
mouse SH2B SH2 domain = mouse SH2B SH2 domain (mouse, UniProt Q91ZM2 527-625)
[1] = molecular target: M. musculus LNK SH2 domain R387H (mouse, UniProt O09039 325-438, R387H)
[2] = molecular target: M. musculus LNK SH2 domain R387C (mouse, UniProt O09039 325-438, R387C)
[3] = molecular target: M. musculus LNK SH2 domain (residues 324–446), wild type (mouse, UniProt O09039 324-446)
Chain of M. musculus LNK SH2 domain (residues 324–446), wild type (O09039 324-446): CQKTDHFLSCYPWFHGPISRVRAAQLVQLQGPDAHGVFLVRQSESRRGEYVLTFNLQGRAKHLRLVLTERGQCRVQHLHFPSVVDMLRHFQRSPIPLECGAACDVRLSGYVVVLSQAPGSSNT

Chain of M. musculus LNK SH2 domain R387C (O09039 325-438 R387C): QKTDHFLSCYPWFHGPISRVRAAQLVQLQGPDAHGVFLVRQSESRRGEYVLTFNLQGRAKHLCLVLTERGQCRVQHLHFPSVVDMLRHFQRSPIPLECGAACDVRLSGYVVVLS
Chain of M. musculus LNK SH2 domain R387H (O09039 325-438 R387H): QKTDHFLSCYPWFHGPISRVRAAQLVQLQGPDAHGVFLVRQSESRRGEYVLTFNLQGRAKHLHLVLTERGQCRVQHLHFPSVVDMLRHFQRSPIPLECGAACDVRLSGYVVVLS

For FTPD[pY]ELLTEND (also: biotin, site not given here) [biotinylated JAK2 pY813 peptide], which Kd (mouse SH2B SH2 domain) is on record?
The Kd was 108 nM.

What about the Kd [1] of the same binder?
The Kd was 242 nM.

What about the Kd [2] of the same binder?
The Kd was 76 nM.

And the Kd [3]?
The Kd was 27 nM.
